Drawing on article PMC11841055, “Structural characterization of pyruvic oxime dioxygenase, a key enzyme in heterotrophic nitrification” (Journal of Bacteriology, 2025), this text covers Km, kcat and kcat/Km for ten molecules.

As a reminder, the Km is the substrate concentration at which the rate is half of its maximum. In general, kcat refers to the maximal rate divided by the concentration of active sites. Usually kcat/Km stands for the second-order rate constant that governs catalysis at low substrate concentration.

To fix the notation:
B1: AfPOD (Alcaligenes faecalis) (protein)
chain: MDTPLRDKSYFDERATKEMATHLQQVQRDTRETMAFACRILAMTEQEAGLAGQISVRSERPGAYWTLRFGLGFDEATPEDFIEVDRDLNTLSGEGMANPATRFHLWVYEARPDVNSIIHTHSPWATVLATARQPLVISQMDMTPLHNDCAFLGEWPGVPIADQEGVIISKALGDKRAIILAHHGYLTAGKSCQEATYLSVYLERAARLQVRAQAAFGPLTPVDDTLAAEAHDYLLKPSIVNATFDYWSRQTQGIAPLTKTR

Substrate in one data set: CC(=NO)C(=O)O
Description: nitrite production, diazo-coupling spectrophotometry. The format is biochemical, Alcaligenes faecalis. The following applies: 20 mM Tris-HCl pH 8.0, 1.0 mM sodium ascorbate, 100 µM FeSO4, O2 as co-substrate. An excerpt: (§1) nitrite production, diazo-coupling spectrophotometry on AfPOD
As to B1, the Km was determined as 622 ± 83 µM, the turnover number (kcat) was 4.8 ± 0.169 s⁻¹ and the specificity constant (kcat/Km) was 7700 M⁻¹ s⁻¹.

In the next data set the test system is T1, CC(=NO)C(=O)O.
T1 construct: full length, 261 residues (Met1-Arg261); recombinant in E. coli; variants with C-terminal His6-tag, WT by two untagged chromatographic steps; homotetramer, Fe(II)-dependent
Described as above. The format is biochemical, Alcaligenes faecalis. The following applies: 20 mM Tris-HCl pH 8.0, 1.0 mM sodium ascorbate, 100 µM FeSO4, O2 as co-substrate.
Source text: as §1
Take AfPOD (Alcaligenes faecalis; E164A): the Michaelis-Menten constant (Km) was 943 ± 240 µM, the kcat is 0.27 ± 0.02 s⁻¹ and the kcat/Km was 290 M⁻¹ s⁻¹.

Regarding AfPOD (Alcaligenes faecalis; E229K), the Michaelis-Menten constant (Km) was determined as 2150 ± 172 µM, the kcat turned out to be 4.58 ± 0.098 s⁻¹ and the kcat/Km stood at 2100 M⁻¹ s⁻¹.

Consider AfPOD (Alcaligenes faecalis; E229K/K8E), for which the Km is 2538 ± 568 µM, the kcat came to 1.76 ± 0.109 s⁻¹ and the catalytic efficiency (kcat/Km) stood at 690 M⁻¹ s⁻¹.

On to AfPOD (Alcaligenes faecalis; F69A), for which the Michaelis constant (Km) was found to be 41509 ± 9984 µM, the kcat is 0.246 ± 0.018 s⁻¹ and the kcat/Km came to 5.9 M⁻¹ s⁻¹.

On to AfPOD (Alcaligenes faecalis; F103A), for which the Michaelis constant (Km) is 89 ± 22 µM, the turnover number (kcat) came to 0.008 ± 0.001 s⁻¹ and the specificity constant (kcat/Km) stood at 90 M⁻¹ s⁻¹.

Turning to AfPOD (Alcaligenes faecalis; H104A), the Michaelis-Menten constant (Km) came to 170 ± 37 µM, the kcat turned out to be 0.21 ± 0.013 s⁻¹ and the kcat/Km turned out to be 1200 M⁻¹ s⁻¹.

Consider AfPOD (Alcaligenes faecalis; K8E), for which the Michaelis constant (Km) was 68766 ± 20299 µM, the catalytic constant (kcat) was 0.632 ± 0.066 s⁻¹ and the kcat/Km turned out to be 9.2 M⁻¹ s⁻¹.

Regarding AfPOD (Alcaligenes faecalis; Q53A), the Michaelis constant (Km) is 96 ± 18 µM, the kcat is 0.162 ± 0.008 s⁻¹ and the kcat/Km worked out at 1700 M⁻¹ s⁻¹.

In the case of AfPOD (Alcaligenes faecalis; Y233A), the Michaelis-Menten constant (Km) was found to be 42247 ± 16705 µM, the kcat was determined as 0.012 ± 0.001 s⁻¹ and the specificity constant (kcat/Km) turned out to be 0.3 M⁻¹ s⁻¹.
